This is an account of results in PMC10783015.

Series [1] deals with T1, CRP (Salmonella enterica serovar Typhimurium ATCC 14028) (UniProt P0A2T6).
T1 sequence: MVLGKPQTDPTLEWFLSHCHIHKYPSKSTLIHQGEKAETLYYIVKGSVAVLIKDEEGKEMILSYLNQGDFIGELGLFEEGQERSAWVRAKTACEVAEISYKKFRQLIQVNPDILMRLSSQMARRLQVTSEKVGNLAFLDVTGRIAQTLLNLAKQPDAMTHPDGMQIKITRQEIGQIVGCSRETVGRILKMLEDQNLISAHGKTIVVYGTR
The series can be described thus: SPR. The note with it: EMSA: 100 ng DNA in 1x TBE, 20 uL, 45 min at room temperature, 12% native PAGE, PargS competitor, 20 uM cAMP for CRP; SPR: streptavidin chip with biotinylated ….

In series [2] the target is T2, H-NS (Salmonella enterica serovar Typhimurium ATCC 14028) (UniProt P0A1S2).
T2 sequence: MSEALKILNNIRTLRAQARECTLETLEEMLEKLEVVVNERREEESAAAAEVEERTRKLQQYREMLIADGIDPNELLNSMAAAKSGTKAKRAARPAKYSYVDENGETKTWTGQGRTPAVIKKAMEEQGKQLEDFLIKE
The series can be described thus: SPR. The note with it: EMSA: 100 ng DNA in 1x TBE, 20 uL, 45 min at room temperature, 12% native PAGE, PargS competitor, 20 uM cAMP for CRP; SPR: streptavidin chip with biotinylated …. (In general: In EMSA bound probe runs differently from free probe, usually more slowly.)

Broadly, the Kd is the equilibrium constant for the complex coming apart. Read a low Kd as a tighter complex. In series [1], “AAGAGCCTGAATATTCACCGGAATACCTTACGTTTATGAAGCGGGCTGTATTGCCCGCGCCAGTTTAAGAATTAGGGCGGGAGTATACTGCAAATGCCCGTTGGCGTCAGCATTGCGCGCGCGGCGCGTCGCCTGAAATATACGCAACAATAATCTGCATAAGCATTCAATAAACGCCCAATCAAATCAAAGGTTG (double strand) [PargS SPR]” returned a Kd of 1 nM. Also, in series [2], the binding result is recorded as “no binding”. Turning to “CTTATGTCGGTCATTGCCGTAGCGCTGCCGACGATCTTATAGCTATTGAGAACTCTCGTTTCACAACCTATGTTTTAATTTCAAAACGATCAATAATGAAACTTATGTTTTGTTATGGGTATCACATTTCGAATTTCATAATCCTGGCGTTTTTTATCGTT (double strand) [PiolT1 SPR]”, the binding entry in series [1] was “no binding”.
